Experiment [1] deals with T1, human CCR7 (human, UniProt P32248 25-378).
T1 construct: The assay field tells which; also called hCCR7; NIH3T3.hCCR7
T1 sequence: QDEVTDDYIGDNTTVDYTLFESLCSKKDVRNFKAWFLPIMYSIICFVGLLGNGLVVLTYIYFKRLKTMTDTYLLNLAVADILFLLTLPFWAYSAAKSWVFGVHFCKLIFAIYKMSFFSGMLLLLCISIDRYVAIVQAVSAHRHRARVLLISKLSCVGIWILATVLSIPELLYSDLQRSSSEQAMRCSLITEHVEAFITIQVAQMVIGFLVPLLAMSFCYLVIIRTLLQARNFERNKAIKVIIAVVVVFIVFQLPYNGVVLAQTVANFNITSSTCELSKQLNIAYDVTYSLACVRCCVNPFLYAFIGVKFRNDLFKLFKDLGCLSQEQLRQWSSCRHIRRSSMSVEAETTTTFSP
The experiment can be described thus: FACS titration, human CD4+ T cells (receptor density <2,000).

For experiment [2], the target named is T1, human CCR7. The experiment can be described thus: FACS titration, DEL cancer cells (receptor density ~100,000).
Experiment [3] concerns the target T1, human CCR7. Kind of experiment: cell-based or functional assay.
Experiment [4] addresses T2, recombinant hCCR7 (Origene #TP306614) (human, UniProt P32248 25-378, limits assumed).
T2 construct: Bought protein coated on ELISA plates; also called recombinant CCR7
T2 sequence (looked up): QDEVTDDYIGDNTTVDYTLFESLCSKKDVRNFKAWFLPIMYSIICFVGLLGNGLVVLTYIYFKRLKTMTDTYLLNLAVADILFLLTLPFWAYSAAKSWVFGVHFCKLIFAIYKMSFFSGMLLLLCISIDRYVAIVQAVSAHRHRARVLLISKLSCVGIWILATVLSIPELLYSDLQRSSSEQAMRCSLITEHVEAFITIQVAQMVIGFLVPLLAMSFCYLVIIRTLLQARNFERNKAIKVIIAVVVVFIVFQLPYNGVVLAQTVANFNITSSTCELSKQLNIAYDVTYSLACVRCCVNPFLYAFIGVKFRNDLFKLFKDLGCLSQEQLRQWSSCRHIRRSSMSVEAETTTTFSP
Kind of experiment: ELISA, recombinant CCR7 coated at 3.5 ug/ml, antibody titrated.

For experiment [5], the target named is T1, human CCR7. The experiment can be described thus: FACS titration, NIH3T3.hCCR7 cells (receptor density >1,000,000).
The target of experiment [6] is T3, CCR6 (UniProt P51684 1-374, limits assumed).
T3 construct: whole, on cells; also called PF382 cells (CCR7-/CCR9+/CCR6+)
T3 sequence (looked up): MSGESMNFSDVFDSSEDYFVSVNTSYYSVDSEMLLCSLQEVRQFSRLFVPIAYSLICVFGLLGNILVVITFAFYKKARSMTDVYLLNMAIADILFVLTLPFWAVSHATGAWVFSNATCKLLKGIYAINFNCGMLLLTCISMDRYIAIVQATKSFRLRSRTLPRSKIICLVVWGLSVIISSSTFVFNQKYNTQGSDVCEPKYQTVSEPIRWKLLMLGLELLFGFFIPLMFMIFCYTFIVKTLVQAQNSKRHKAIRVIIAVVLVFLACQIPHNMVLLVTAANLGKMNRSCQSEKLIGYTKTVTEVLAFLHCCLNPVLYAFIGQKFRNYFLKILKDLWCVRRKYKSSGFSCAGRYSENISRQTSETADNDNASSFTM
Kind of experiment: FACS on PF382 cells (CCR7-/CCR9+/CCR6+).

For experiment [7], the target named is T4, CCR9 (UniProt P51686 1-369, limits assumed).
T4 construct: whole, on cells; also called PF382 cells (CCR7-/CCR9+/CCR6+)
T4 sequence (looked up): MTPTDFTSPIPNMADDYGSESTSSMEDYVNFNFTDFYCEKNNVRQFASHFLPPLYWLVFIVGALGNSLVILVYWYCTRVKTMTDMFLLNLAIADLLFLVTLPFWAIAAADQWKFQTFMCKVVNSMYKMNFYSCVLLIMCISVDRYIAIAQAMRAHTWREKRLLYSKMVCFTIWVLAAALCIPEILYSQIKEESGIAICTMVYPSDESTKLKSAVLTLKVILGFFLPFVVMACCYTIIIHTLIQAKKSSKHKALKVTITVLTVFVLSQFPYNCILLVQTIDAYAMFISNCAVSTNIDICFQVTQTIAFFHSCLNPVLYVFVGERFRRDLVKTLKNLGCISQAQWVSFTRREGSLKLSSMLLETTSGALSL
Kind of experiment: FACS on PF382 cells (CCR7-/CCR9+/CCR6+).

In experiment [8] the target is T1, human CCR7. Kind of experiment: cell-based or functional assay. This is another data set of the same source.
Experiment [9] concerns the target T1, human CCR7. The experiment can be described thus: FACS titration, human CD4+ T cells from PBMC.
The target of experiment [10] is T1, human CCR7. Kind of experiment: ELISA on CCR7-expressing VLPs, pH 5.8 buffer. (In general: An ELISA detects its analyte on a solid surface through an enzyme-linked reagent.)
The target in experiment [11] is T5, CCR8 (UniProt P51685 1-355, limits assumed).
T5 construct: whole, on cells; also called CHO-CCR8
The experiment can be described thus: FACS on CHO-CCR8 cells.

Experiment [12] deals with T6, CXCR4 (UniProt P61073 1-352, limits assumed).
T6 construct: whole, on cells; also called HEK293-CXCR4
The experiment can be described thus: FACS on HEK293-CXCR4 cells.

Experiment [13] concerns the target T1, human CCR7. The experiment can be described thus: ELISA on CCR7-expressing VLPs, pH 7.4 buffer.
Experiment [14] deals with T7, cynomolgus monkey CCR7 (cynomolgus monkey, UniProt P32248 25-378 (human entry)).
T7 construct: also called Cyno CCR7; NIH3T3.cyno CCR7
T7 sequence: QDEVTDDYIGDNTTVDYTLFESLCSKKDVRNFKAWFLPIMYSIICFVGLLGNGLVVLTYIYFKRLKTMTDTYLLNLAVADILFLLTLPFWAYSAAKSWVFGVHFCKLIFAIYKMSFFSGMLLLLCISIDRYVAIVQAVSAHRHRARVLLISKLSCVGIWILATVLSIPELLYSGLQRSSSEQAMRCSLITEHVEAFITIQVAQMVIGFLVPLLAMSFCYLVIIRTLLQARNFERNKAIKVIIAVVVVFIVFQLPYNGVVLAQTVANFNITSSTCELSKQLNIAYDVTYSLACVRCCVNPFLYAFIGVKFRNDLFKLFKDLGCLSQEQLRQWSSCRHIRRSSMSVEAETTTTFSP
Kind of experiment: FACS titration, cynomolgus CD4+ T cells.

T5 sequence (P51685 whole entry): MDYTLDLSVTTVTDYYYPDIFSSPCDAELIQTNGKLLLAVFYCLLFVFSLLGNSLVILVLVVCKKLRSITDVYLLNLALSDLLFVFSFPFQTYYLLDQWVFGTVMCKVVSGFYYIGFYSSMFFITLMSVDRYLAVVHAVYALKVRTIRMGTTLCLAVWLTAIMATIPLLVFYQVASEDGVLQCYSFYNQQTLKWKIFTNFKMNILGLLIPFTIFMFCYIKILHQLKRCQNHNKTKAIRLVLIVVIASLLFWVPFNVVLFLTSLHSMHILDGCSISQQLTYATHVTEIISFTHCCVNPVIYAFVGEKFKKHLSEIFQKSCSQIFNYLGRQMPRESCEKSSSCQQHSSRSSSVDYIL
T6 sequence (P61073 whole entry): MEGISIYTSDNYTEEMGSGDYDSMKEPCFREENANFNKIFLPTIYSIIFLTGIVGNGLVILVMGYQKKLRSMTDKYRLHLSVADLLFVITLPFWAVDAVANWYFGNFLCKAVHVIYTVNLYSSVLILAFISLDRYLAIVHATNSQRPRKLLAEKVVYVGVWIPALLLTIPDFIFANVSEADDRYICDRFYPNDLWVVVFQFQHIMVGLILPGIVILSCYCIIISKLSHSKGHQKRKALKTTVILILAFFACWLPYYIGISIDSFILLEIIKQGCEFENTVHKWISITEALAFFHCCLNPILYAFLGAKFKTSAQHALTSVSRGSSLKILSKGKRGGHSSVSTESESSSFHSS

B1: Humanized 506E15.CysMab.DAPA (antibody, human IgG1, kappa, V domains shown)
VH: EVQLVESGGGLVKPGGSLRLSCAASGFTFSSYAMSWIRQAPGKGLEWVATISSGGSFTYYPDSVKGRFTISRDNAKNSLYLQMNSLRAEDTAVYYCARRASTVVGTDFDVWGQGTTVTVSS
VL: DIQMTQSPSSLSASVGDRVTLTCRASQDIGSSLNWLQQKPGKAIKRLIYATSSLDSGVPSRFSGSRSGTDYTLTISSLQPEDFVVYYCLQYASSPPTFGGGTKLEIKR
notes: Human IgG1 kappa with D265A/P329A and CysMab cysteines; also called 506E15 (Humanized CysMab DAPA)
Regarding B1, the EC50 (in general, the concentration at which the effect is half-maximal) in experiment [1] is around 10 nM. Besides, a half-maximal response in experiment [2] (EC50) required 3.09 nM. In experiment [3], the “pHrodo (6 h MFI), internalization, CD4+ T cells (receptor numbers 2000)” value was 429 MFI; the “pHrodo (6 h MFI), internalization, CMLT1 cells (receptor numbers 19583)” value worked out at 465 MFI; the “pHrodo (6 h MFI), internalization, DEL cells (receptor numbers 110685)” value came to 3060 MFI; the “pHrodo (6 h MFI), internalization, JVM3 cells (receptor numbers 8717)” value came to 238 MFI. Besides, in experiment [3], the “pHrodo (6 h MFI), internalization, Jeko-1 cells (receptor numbers 28852)” value worked out at 908 MFI; the “pHrodo (6 h MFI), internalization, KE97 cells (receptor numbers 152093)” value was 2720 MFI; the “pHrodo (6 h MFI), internalization, L540 cells (receptor numbers 167549)” value is 16100 MFI; the “pHrodo (6 h MFI), internalization, L1236 cells (receptor numbers 61602)” value was 3130 MFI. Moreover, in experiment [3], the “pHrodo (6 h MFI), internalization, MJ cells (receptor numbers 111121)” value amounted to 3870 MFI; the “pHrodo (6 h MFI), internalization, MOTN1 cells (receptor numbers 84200)” value is 2900 MFI; the “pHrodo (6 h MFI), internalization, Mec2 cells (receptor numbers 50840)” value worked out at 3090 MFI. Besides, in experiment [4], the Kd (in general, the concentration at which binding is half-saturated) stood at 5.73 nM. Moreover, in experiment [5], a half-maximal effect (EC50) was put at 1.8 nM.

B2: 506E15 humanized CysMab (Fc Wild Type) (antibody, V domains shown)
VH: EVQLVESGGGLVKPGGSLRLSCAASGFTFSSYAMSWIRQAPGKGLEWVATISSGGSFTYYPDSVKGRFTISRDNAKNSLYLQMNSLRAEDTAVYYCARRASTVVGTDFDVWGQGTTVTVSS
VL: DIQMTQSPSSLSASVGDRVTLTCRASQDIGSSLNWLQQKPGKAIKRLIYATSSLDSGVPSRFSGSRSGTDYTLTISSLQPEDFVVYYCLQYASSPPTFGGGTKLEIK
notes: Human IgG1 kappa with CysMab cysteines; also called Humanized CysMab antibody 506E15
Turning to B2, the binding result in experiment [6], in experiment [7], in experiment [11] and in experiment [12] was “no binding (tested: 5 ug/ml)” each time. Further, the “ADCC activity; IC50 (nM); reporter assay, JVM2 targets and Jurkat-V158 effectors” value in [8] was 0.054 nM. Moreover, the results for the EC50 in [9] and in experiment [14] were 7.8 to 11 nM and 7 nM, respectively. For the same molecule, the Kd in [10] is 0.494 nM; in [13], 0.0571 nM.

The record behind these values is patent publication US20230181756A1 (Novartis, published 2023).
